Experimental data reported in the supplement of paper PMC7877785.
± gives the uncertainty stated by the source.

Test: self-splicing fitness, log relative to wild type (ln ratio); higher = more splicing; Tetrahymena group I intron in knt gene, E. coli kanamycin selection, DiMSum; sequences stand for … in CUCUCU…GGAGGGAAAAGUUAUCAGGCAUGCACCUGGUAGCUAGUCUUUAAACCAAUAGAUUGCAUCGGUUUAAAAGGCAAGACCGUCAAAUUGCGGGAAAGGGGUCAACAGCCGUUCAGUACCAAGUCUCAGGGGAAACUUUGAGAUGGCCUUGCAAAGGGUAUGGUAAUAAGCUGACGGACAUGGUCCUAACCACGCAGCCAAGUCCUAAGUCAACAGAUCUUCUGUUGAUAUGGAUGCAGUUCACAGACUAAAUGUCGGUCGGGGAAGAUGUAUUCUUCUCAUAAGAUAUAGUCGGACCUCUCCUUAAUGGGAGCUAGCGGAUGAAGUGAUGCAACACUGGAGCCGCUGGGAACUAAUUUGUAUGCGAAAGUAUAUUGAUUAGUUUUGGAGUACUCGUGGUCG
In short: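 Six replicate transformations of E. coli BL21(DE3) with a pET-22b(+) library were grown overnight at 37°C or 30°C. The library randomised all eight P1ex-region intron nucleotides, the intron lying in the knt kanamycin-resistance gene, and plates were LB agar with or without 25 μg/mL kanamycin plus 100 μg/mL carbenicillin, 50 μM IPTG and 0.2% rhamnose. Pooled colonies were amplicon-sequenced on an Illumina HiSeq 2500, and fitness is the DiMSum error-weighted combination of wild-type-normalised replicate fold changes, kanamycin versus none.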

Sequence	self-splicing fitness (ln) (30 °C)	self-splicing fitness (ln) (37 °C)
CUAUAGCAAUAUUACGAGAU	-3.91 ± 0.42	0.449 ± 0.18
CUAUAGCAAUAUUACGAGGC	-3.06 ± 0.35	
CUAUAGCAAUAUUACGAUGG	-3.44 ± 0.24	-1.18 ± 0.14
CUAUAGCAAUAUUACGCCAC		-1.21 ± 0.42
CUAUAGCAAUAUUACGCCUC	-3.66 ± 0.32	-3.15 ± 0.37
CUAUAGCAAUAUUACGCGAC	-1.89 ± 0.18	0.00503 ± 0.2
CUAUAGCAAUAUUACGCGGU	-3.7 ± 0.24	-2.29 ± 0.22
CUAUAGCAAUAUUACGCGUU	-4.27 ± 0.42	-2.18 ± 0.3
CUAUAGCAAUAUUACGCUAU	-2.77 ± 0.15	-1.72 ± 0.27
CUAUAGCAAUAUUACGGAAG	-1.87 ± 0.12	-0.957 ± 0.13
CUAUAGCAAUAUUACGGGGG	-2.16 ± 0.23	-3.09 ± 0.43
CUAUAGCAAUAUUACGGUCC	-3.69 ± 0.4	-2.56 ± 0.46
CUAUAGCAAUAUUACGGUUA	-2.91 ± 0.2	-2.84 ± 0.19
CUAUAGCAAUAUUACGUAUA	-3.27 ± 0.42	-2.56 ± 0.37
CUAUAGCAAUAUUACGUCCG	-0.823 ± 0.11	0.0188 ± 0.13
CUAUAGCAAUAUUACGUCUG	0.043 ± 0.088	-0.099 ± 0.1
CUAUAGCAAUAUUACGUGGG	-3.25 ± 0.19	-2.16 ± 0.15
CUCAAGCAAUAUUACGAAAA	-3.12 ± 0.28	-2.65 ± 0.28
CUCAAGCAAUAUUACGAACC	-2.43 ± 0.39	-2.38 ± 0.28
CUCAAGCAAUAUUACGAAGA	-3.8 ± 0.25	-2.55 ± 0.2

Sequence	self-splicing fitness (ln) (30 °C)	self-splicing fitness (ln) (37 °C)
CUCAAGCAAUAUUACGACAU	-3.206 ± 0.018	-1.9 ± 0.034
CUCAAGCAAUAUUACGAUCU	-3.53 ± 0.26	-2.59 ± 0.24
CUCAAGCAAUAUUACGCACG	-2.51 ± 0.14	-0.724 ± 0.16
CUCAAGCAAUAUUACGCAGU	-3.28 ± 0.18	-2.32 ± 0.22
CUCAAGCAAUAUUACGCCGA		-1.29 ± 0.34
CUCAAGCAAUAUUACGCCUG	-4.22 ± 0.31	-2.52 ± 0.24
CUCAAGCAAUAUUACGCGCC	-1.95 ± 0.32	-1.15 ± 0.26
CUCAAGCAAUAUUACGCGCU	-2.36 ± 0.18	-3.39 ± 0.32
CUCAAGCAAUAUUACGCGGG	-3.15 ± 0.25	-2.42 ± 0.25
CUCAAGCAAUAUUACGCGUG	-3.3 ± 0.21	-3.41 ± 0.43
CUCAAGCAAUAUUACGCUGA	-3.13 ± 0.18	-2.41 ± 0.2
CUCAAGCAAUAUUACGGAAG	-1.84 ± 0.11	-0.365 ± 0.12
CUCAAGCAAUAUUACGGAUU	-3.66 ± 0.17	-2.81 ± 0.19
CUCAAGCAAUAUUACGGCCC	-2.42 ± 0.41	
CUCAAGCAAUAUUACGGGCG	-2.1 ± 0.086	-1.34 ± 0.094
CUCAAGCAAUAUUACGUACG	-1.02 ± 0.065	-0.705 ± 0.088
CUCAAGCAAUAUUACGUAGG	-0.955 ± 0.068	-0.324 ± 0.11
CUCAAGCAAUAUUACGUAUG	-2.91 ± 0.099	-2.61 ± 0.12
CUCAAGCAAUAUUACGUCCA	-2.66 ± 0.32	-1.51 ± 0.27
